Laboratory results from PMC6405639.

What was measured:
[1] = target: Y2R_cysteine_deficient_eYFP (in HEK293 cells) (human) (UniProt P49146)
[2] = target: Y2R_cysteine_deficient_eYFP (in HEK293 cells) (human) (UniProt P49146); assay: radioligand binding; displacement of 60 pM [125I]-PYY from membrane preparations (0.75 μg protein) of transiently transfected HEK293 cells; HBSS with 1% BSA, room temperature, 3 h; filtration
[3] = target: Y2R_cysteine_deficient_eYFP (in HEK293 cells) (human) (UniProt P49146); remark: listed apart in the source

Chain of Y2R_cysteine_deficient_eYFP (in HEK293 cells) (human) (P49146 other isoform, or with tags, fused parts or gaps): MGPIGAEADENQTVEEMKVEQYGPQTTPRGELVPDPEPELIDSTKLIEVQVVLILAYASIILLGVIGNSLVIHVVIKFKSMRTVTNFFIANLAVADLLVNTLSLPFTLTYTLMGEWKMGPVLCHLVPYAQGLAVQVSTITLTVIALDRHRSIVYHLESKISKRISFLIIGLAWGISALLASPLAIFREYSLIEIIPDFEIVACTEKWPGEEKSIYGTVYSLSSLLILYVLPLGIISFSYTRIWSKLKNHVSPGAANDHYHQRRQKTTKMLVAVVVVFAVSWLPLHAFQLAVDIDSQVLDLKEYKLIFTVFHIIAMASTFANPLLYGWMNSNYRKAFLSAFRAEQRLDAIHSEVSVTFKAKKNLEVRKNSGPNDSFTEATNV

| EC50 of IP-one accumulation in HEK293 cells co-transfected with the receptor and the chimeric G protein GαΔ6qi4myr [1] | Emax of IP-one accumulation, normalised to the Y2R/NPY curve [1] | IC50 [2] | Ki [2] | potency in the IP-one accumulation assay [3] | Substance |
| --- | --- | --- | --- | --- | --- |
| 4 nM | 102% | – | – | – | [K^22[(Ahx)2-biotin]Bpa^27]NPY (peptide) |
| 3.4 nM | 95% | 39 nM | 11.2 nM | 3.6 nM | 5(6)-TAMRA-Ahx(5-24)NPY (peptide) |
